# Molecular target: T1, CD33 (immobilized on CM5 sensor chip) (UniProt P20138 18-259, limits assumed)
# T1 construct: also called CD33 antigen
# Assay: SPR (Biacore T-200), CD33 immobilized on CM5 chip
# T1 sequence (P20138 18-259 limits assumed): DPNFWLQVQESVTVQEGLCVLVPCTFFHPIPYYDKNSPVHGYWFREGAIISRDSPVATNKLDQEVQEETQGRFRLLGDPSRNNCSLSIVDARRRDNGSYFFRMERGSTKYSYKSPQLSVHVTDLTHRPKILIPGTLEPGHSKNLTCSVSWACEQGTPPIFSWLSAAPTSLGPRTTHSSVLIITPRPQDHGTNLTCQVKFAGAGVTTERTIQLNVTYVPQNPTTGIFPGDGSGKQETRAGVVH
Binder,Kd [pM],koff [s⁻¹],kon [M⁻¹ s⁻¹]
"humanized HIM34 BsAb L4H4 (bispecific antibody, human IgG1, V domains shown, Tested as a humanized HIM34×CD3 BsAb in the IgG-scFv format (human IgG1 N297A/K322A, humanized OKT3 scFv on the light chain)) VH: QVQLVQSGAEVKKPGASVKVSCKASGYSFTDYNMYWVRQAPGQGLEWIGYIDPYKGGTNYAQKFQGRATLTVDKSSSTAYMELSRLRSDDTAVYYCAREMITAYYFDYWGQGSSVTVSS VL: DIQMTQSPSSLSASVGDRVTITCKASQDINKYIAWYQHKPGKAPKLLIYYASNLQPGVPSRFSGSGSGRDFTFTISSLQPEDIATYYCLQYDNLLTFGAGTKLELK",1650,0.00743,4.5e+06
"humanized HIM34 BsAb L3H4 (bispecific antibody, human IgG1, V domains shown, Tested as a humanized HIM34×CD3 BsAb in the IgG-scFv format: human IgG1 with N297A/K322A, humanized OKT3 scFv on the light chain C-terminus via (G4S)3) VH: QVQLVQSGAEVKKPGASVKVSCKASGYSFTDYNMYWVRQAPGQGLEWIGYIDPYKGGTNYAQKFQGRATLTVDKSSSTAYMELSRLRSDDTAVYYCAREMITAYYFDYWGQGSSVTVSS VL: DIQMTQSPSSLSASVGDRVTITCKASQDINKYIAWYQHKPGKAPKLLIHYTSTLETGVPSRFSGSGSGTDFTFTISSLQPEDIATYYCLQYDNLLTFGAGTKLELK",955,0.00175,1.84e+06
"humanized HIM34 BsAb L4H1 (bispecific antibody, human IgG1, V domains shown, Tested as a humanized HIM34×CD3 BsAb in the IgG-scFv format (human IgG1 N297A/K322A, humanized OKT3 scFv on the light chain)) VH: QVQLQQSGAEVVKPGASVKVSCKASGYSFTDYNMYWVRQAPGQGLEWIGYIDPYKGGTNYAQKFQGRVTMTVDKSSSTAYMELSRLRSDDTAVYYCAREMITAYYFDYWGQGSSVTVSS VL: DIQMTQSPSSLSASVGDRVTITCKASQDINKYIAWYQHKPGKAPKLLIYYASNLQPGVPSRFSGSGSGRDFTFTISSLQPEDIATYYCLQYDNLLTFGAGTKLELK",1210,0.00597,4.95e+06

# These reach a lower Kd. Values come first.
Kd [pM],koff [s⁻¹],kon [M⁻¹ s⁻¹],Binder
198,0.00017,861000,"humanized HIM34 BsAb L4H7 (bispecific antibody, human IgG1, V domains shown, Tested as a humanized HIM34×CD3 BsAb in the IgG-scFv format (human IgG1 N297A/K322A, humanized OKT3 scFv on the light chain)) VH: QVQLQQSGAEVKKPGASVKVSCKASGYSFTDYNMYWVRQAPGQGLEWIGYIDPYKGGTIYNQKFKGRATLTRDTSISTAYMELSRLRSDDTAVYYCAREMITAYYFDYWGQGSSVTVSS VL: DIQMTQSPSSLSASVGDRVTITCKASQDINKYIAWYQHKPGKAPKLLIYYASNLQPGVPSRFSGSGSGRDFTFTISSLQPEDIATYYCLQYDNLLTFGAGTKLELK"
128,0.000117,914000,"chimeric HIM34×CD3 bispecific antibody (chHIM34 BsAb) (bispecific antibody, IgG-scFv format (tetravalent); also called chHIM34×CD3 BsAb; chimeric CD33-BsAb) light: DIVMTQSPSSLSASLGGKVTITCKASQDINKYIAWYQHKPGKGPRLLIHYTSTLQPGIPSRFSGSGSGRDYSFSISNLEPEDIATYYCLQYDNLLTFGAGTKLELKRTVAAPSVFIFPPSDEQLKSGTASVVCLLNNFYPREAKVQWKVDNALQSGNSQESVTEQDSKDSTYSLSSTLTLSKADYEKHKVYACEVTHQGLSSPVTKSFNRGECTSGGGGSGGGGSGGGGSQVQLVQSGGGVVQPGRSLRLSCKASGYTFTRYTMHWVRQAPGKCLEWIGYINPSRGYTNYNQKFKDRFTISRDNSKNTAFLQMDSLRPEDTGVYFCARYYDDHYSLDYWGQGTPVTVSSGGGGSGGGGSGGGGSGGGGSGGGGSGGGGSDIQMTQSPSSLSASVGDRVTITCSASSSVSYMNWYQQTPGKAPKRWIYDTSKLASGVPSRFSGSGSGTDYTFTISSLQPEDIATYYCQQWSSNPFTFGCGTKLQITR heavy: not shown"

# Molecular target: full length CD33 on cells (human, UniProt P20138 18-364)
# Assay: cell-based or functional assay
# Chain of full length CD33 on cells (P20138 18-364): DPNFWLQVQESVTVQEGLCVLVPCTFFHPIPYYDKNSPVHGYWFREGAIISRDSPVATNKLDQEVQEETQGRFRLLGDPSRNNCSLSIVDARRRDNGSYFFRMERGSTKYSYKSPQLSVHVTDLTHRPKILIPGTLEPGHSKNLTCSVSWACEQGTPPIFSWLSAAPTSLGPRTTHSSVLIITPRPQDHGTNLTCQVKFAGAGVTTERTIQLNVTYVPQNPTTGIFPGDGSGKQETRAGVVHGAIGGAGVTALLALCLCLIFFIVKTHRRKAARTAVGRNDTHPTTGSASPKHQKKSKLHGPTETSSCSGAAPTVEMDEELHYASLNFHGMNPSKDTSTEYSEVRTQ
Binder,"EC50 of T cell cytotoxicity, 4-hour 51Cr release assay, C1498-CD33 cells [pM]","EC50 of T cell cytotoxicity, 4-hour 51Cr release assay, THP1 cells [pM]"
"chimeric HIM34×CD3 bispecific antibody (chHIM34 BsAb) (bispecific antibody, IgG-scFv format (tetravalent); also called chHIM34×CD3 BsAb; chimeric CD33-BsAb) light: DIVMTQSPSSLSASLGGKVTITCKASQDINKYIAWYQHKPGKGPRLLIHYTSTLQPGIPSRFSGSGSGRDYSFSISNLEPEDIATYYCLQYDNLLTFGAGTKLELKRTVAAPSVFIFPPSDEQLKSGTASVVCLLNNFYPREAKVQWKVDNALQSGNSQESVTEQDSKDSTYSLSSTLTLSKADYEKHKVYACEVTHQGLSSPVTKSFNRGECTSGGGGSGGGGSGGGGSQVQLVQSGGGVVQPGRSLRLSCKASGYTFTRYTMHWVRQAPGKCLEWIGYINPSRGYTNYNQKFKDRFTISRDNSKNTAFLQMDSLRPEDTGVYFCARYYDDHYSLDYWGQGTPVTVSSGGGGSGGGGSGGGGSGGGGSGGGGSGGGGSDIQMTQSPSSLSASVGDRVTITCSASSSVSYMNWYQQTPGKAPKRWIYDTSKLASGVPSRFSGSGSGTDYTFTISSLQPEDIATYYCQQWSSNPFTFGCGTKLQITR heavy: not shown",0.001,0.2
